Data from paper PMC11522559.

Experiments:
[1] = target: Alexa647-labeled microtubules (porcine brain tubulin), antiparallel overlaps (porcine) (UniProt P02550)
[2] = target: Alexa647-labeled microtubules (porcine brain tubulin), antiparallel overlaps (porcine) (UniProt P02550); remark: listed apart in the source

UniProt P02550, sequence (P02550 whole entry): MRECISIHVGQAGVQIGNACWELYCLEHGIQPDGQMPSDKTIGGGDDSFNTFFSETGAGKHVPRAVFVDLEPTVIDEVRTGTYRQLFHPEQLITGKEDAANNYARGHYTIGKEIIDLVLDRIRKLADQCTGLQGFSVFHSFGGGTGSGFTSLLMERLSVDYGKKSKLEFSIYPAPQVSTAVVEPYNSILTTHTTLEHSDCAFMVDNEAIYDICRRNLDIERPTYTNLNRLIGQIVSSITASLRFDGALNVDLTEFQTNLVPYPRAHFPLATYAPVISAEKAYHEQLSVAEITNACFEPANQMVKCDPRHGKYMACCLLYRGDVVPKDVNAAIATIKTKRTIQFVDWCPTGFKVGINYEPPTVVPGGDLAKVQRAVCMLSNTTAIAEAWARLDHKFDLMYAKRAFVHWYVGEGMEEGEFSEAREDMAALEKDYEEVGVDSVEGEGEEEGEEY

| Substance | fold decrease of affinity against unphosphorylated PRC1 [1] [fold] | Kd [2] [nM] |
| --- | --- | --- |
| CDK1-phosphorylated PRC1-Alexa546 (human PRC1 isoform 2) (from UniProt O43663-2 1-576) (natural protein) | > 10 | – |
| PLK1-phosphorylated PRC1-Alexa546 (human PRC1 isoform 2) (from UniProt O43663-4 1-606) (natural protein) | – | 9.6 |
